Measurements reported in patent publication US20110305716A1.
Blank lines part the entries; values can stand above or below the substance they belong to.

Columns and labels:
[1] = biological target: rat total IgG (Sigma-Aldrich) (rat); assay: ELISA; rat total IgG coated on plate, 10 ng TGF-beta in PBS, 18 h 4 C, bound TGF-beta detected with TGF-beta ELISA kit
[2] = biological target: rat total IgG (Sigma-Aldrich) (rat); assay: ELISA; rat total IgG coated on plate, 10 ng TGF-beta in 10% glycerol in PBS, 18 h 4 C, bound TGF-beta detected with TGF-beta ELISA kit
[3] = biological target: rat total IgG (Sigma-Aldrich) (rat); assay: ELISA; rat total IgG coated on plate, 10 ng TGF-beta in 0.1M Tris pH 7.4 (0 mM NaCl), 18 h 4 C, bound TGF-beta detected with TGF-beta ELISA kit
[4] = biological target: rat total IgG (Sigma-Aldrich) (rat); assay: ELISA; rat total IgG coated on plate, 10 ng TGF-beta in 10% glycerol in 0.1M Tris pH 7.4, 18 h 4 C, bound TGF-beta detected with TGF-beta ELISA kit
[5] = biological target: Mouse IgG1 (eBioscience) (mouse); assay: Sephadex G-50 gel filtration of the TGF-beta/IgG mixture; fractions assayed by TGF-beta ELISA
[6] = biological target: Mouse IgG2a (eBioscience) (mouse); assay: as above
[7] = biological target: TGF-beta receptors on mink lung epithelial cells (ATCC CCL-64) (mink); assay: cell-based or functional assay
[8] = biological target: total mouse IgG (Sigma-Aldrich) (mouse); assay: 20 ng TGF-beta and 1 ug soluble total mouse IgG, 5 min in PBS at 42 C; Sepharose G-50 spin column; TGF-beta ELISA of eluate
[9] = biological target: total mouse IgG (Sigma-Aldrich) (mouse); assay: 20 ng TGF-beta and 1 ug soluble total mouse IgG, 5 min in PBS at room temperature; Sepharose G-50 spin column; TGF-beta ELISA of eluate
[10] = biological target: total mouse IgG (Sigma-Aldrich) (mouse); assay: 20 ng TGF-beta and 1 ug soluble total mouse IgG, 5 min in 0.5x PBS pH 11 at room temperature; Sepharose G-50 spin column; TGF-beta ELISA of eluate

Net Absorbance (450) (absorbance at 450) [1]: 0.18
Net Absorbance (450) (absorbance at 450) [2]: 0
Net Absorbance (450) (absorbance at 450) [3]: 1.02
Net Absorbance (450) (absorbance at 450) [4]: 0.7
Substance: TGF-beta (Leinco Technologies, St. Louis, Mo.) (from UniProt P01137 279-390) (ligand)

percent of TGF-beta eluting in the IgG-bound fraction [5]: 40 to 50%
percent of TGF-beta eluting in the IgG-bound fraction [6]: 40 to 50%
Net Absorbance (450) (absorbance at 450) [8]: 0.117
Net Absorbance (450) (absorbance at 450) [9]: 0.193
Net Absorbance (450) (absorbance at 450) [10]: 0.558
Substance: Transforming growth factor-beta 1 (Peprotech) (from UniProt P01137 279-390) (ligand)
Cell Viability (OD450/Control OD450) at 0.25 pg/mL acid-dissociated (Treated) AcTigg (OD450/Control OD450) [7]: 0.621
Cell Viability (OD450/Control OD450) at 2.5 pg/mL acid-dissociated (Treated) AcTigg (OD450/Control OD450) [7]: 0.645
Cell Viability (OD450/Control OD450) at 25 pg/mL acid-dissociated (Treated) AcTigg (OD450/Control OD450) [7]: 0.651
Cell Viability (OD450/Control OD450) at 250 pg/mL acid-dissociated (Treated) AcTigg (OD450/Control OD450) [7]: 0.651
Cell Viability (OD450/Control OD450) at 2500 pg/mL acid-dissociated (Treated) AcTigg (OD450/Control OD450) [7]: 0.616

Substance: mouse AcTigg (TGF-beta 1 non-covalently bound to mouse IgG1), PEG-precipitated, intact (from UniProt P01137 279-390)
Cell Viability (OD450/Control OD450) at 0.25 pg/mL AcTigg (OD450/Control OD450) [7]: 0.965
Cell Viability (OD450/Control OD450) at 2.5 pg/mL AcTigg (OD450/Control OD450) [7]: 0.924
Cell Viability (OD450/Control OD450) at 25 pg/mL AcTigg (OD450/Control OD450) [7]: 0.897
Cell Viability (OD450/Control OD450) at 250 pg/mL AcTigg (OD450/Control OD450) [7]: 0.817
Cell Viability (OD450/Control OD450) at 2500 pg/mL AcTigg (OD450/Control OD450) [7]: 0.678
